As a reminder, the stoichiometry N is the number of molecules, sites or subunits per partner or assembly.

The source of these data is article doi:10.1101/2020.06.04.133611 (bioRxiv, 2020).

The target in series [1] is Strep-tagged MlaDΔTM (E. coli K-12). Description: SDS-PAGE of the purified protein.
The series “cryo-EM structure” deals with the molecule itself. Description: cryo-EM structure.

The molecule “Strep-tagged MlaDΔTM (domain or fragment)” yielded a stoichiometry N in series [1] of 6.

B1: MlaE (natural protein)
chain: MLLNALASLGHKGIKTLRTFGRAGLMLFNALVGKPEFRKHAPLLVRQLYNVGVLSMLIIVVSGVFIGMVLGLQGYLVLTTYSAETSLGMLVALSLLRELGPVVAALLFAGRAGSALTAEIGLMRATEQLSSMEMMAVDPLRRVISPRFWAGVISLPLLTVIFVAVGIWGGSLVGVSWKGIDSGFFWSAMQNAVDWRMDLVNCLIKSVVFAITVTWISLFNGYDAIPTSAGISRATTRTVVHSSLAVLGLDFVLTALMFGN
As for B1, the “stoichiometry N” value in the series “cryo-EM structure” is 2.

B2: MlaF (natural protein)
chain: MEQSVANLVDMRDVSFTRGNRCIFDNISLTVPRGKITAIMGPSGIGKTTLLRLIGGQIAPDHGEILFDGENIPAMSRSRLYTVRKRMSMLFQSGALFTDMNVFDNVAYPLREHTQLPAPLLHSTVMMKLEAVGLRGAAKLMPSELSGGMARRAALARAIALEPDLIMFDEPFVGQDPITMGVLVKLISELNSALGVTCVVVSHDVPEVLSIADHAWILADKKIVAHGSAQALQANPDPRVRQFLDGIADGPVPFRYPAGDYHADLLPGS
Turning to B2, the “stoichiometry N” value in the series “cryo-EM structure” worked out at 2.
